The source of these data is patent US20210317209A1 (University of Texas, published 2021).

The target in assay [1] is T1, recombinant human CD79b protein (human, UniProt P40259 29-159, limits assumed).
T1 sequence (looked up): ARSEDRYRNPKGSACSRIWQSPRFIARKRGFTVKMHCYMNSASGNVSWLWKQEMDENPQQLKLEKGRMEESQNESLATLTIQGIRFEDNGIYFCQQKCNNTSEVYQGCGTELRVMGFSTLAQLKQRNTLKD
The experiment in a line: ELISA on recombinant human CD79b protein.

Assay [2] deals with T1, recombinant human CD79b protein. The experiment in a line: Octet assay. (In general: In BLI a coated tip is dipped into the sample, and binding shifts an interference pattern.)
Assay [3] shares this target. In words: column EC50(ng/ml) of the drawn table; the table names no assay, the filing's only titration is the ELISA on recombinant human CD79b protein of FIG. 2B. Background: In an ELISA, binding on a coated surface is turned into a signal by an enzyme label.

B1: anti-human CD79b monoclonal antibody clone 14 (IgG1) (antibody, V domains shown)
VH: EVQLQESGPELKKPGETVKISCKASGYTFTDYSMHWVKQAPGKGLKWMGWINTETGEPTYADDFKGRFAFSLETSASTAYLQINNLKNDDTATYFCNMDSWGQGTSVTVSS
VL: QIVLTQSPAIMSASPGEKVTMTCSASSSVSYMWWYHQKPGSSPRLLIFDTSNLASGVPVRFSGSGSGTSYSLTISRMEAEDAATYYCQQWTSYPYTFGGGTKLEIK
notes: Murine hybridoma antibody, IgG1; It was conjugated with a fluorochrome for cell staining
What is called EC50 (read off the curve) is the midpoint of the concentration-response curve. For orientation: Kd means the equilibrium constant for the complex coming apart. As a reminder, the EC50 is the midpoint of the concentration-response curve. In the case of B1, the “EC50 (read off the curve)” value in assay [1] was approximately 0.02 µg/mL. Moreover, the Kd in assay [2] came to 1.44 nM. Moreover, in assay [3], the EC50 amounted to 0.0162 µg/mL.
